Reference: paper PMC9513391, “Crystal structure of the α-ketoglutarate-dependent non-heme iron oxygenase CmnC in capreomycin biosynthesis and its engineering to catalyze hydroxylation of the substrate enantiomer” (Frontiers in Chemistry, 2022)

Target: the molecule itself
Test: crystal structure; CmnC apo and soaked complexes (L-Arg, L-hArg, alpha-KG, L-Arg/alpha-KG), space group I222, two chains in the asymmetric unit; apo crystals from 200 mM ammonium acetate, 24% v/v PEG 400, 0.1 M sodium citrate pH 5.5, 20°C

B1: CmnC (enzyme)
chain: MTAIREIRLSEPESAQAALLALECAQRYAEPDSADFLADAAVLAHDLPRAVRREVERARLDDRLHALVVRGNDVDQDALGPTPPHWRQARTAASRRYGFLLVLYASLLGDVVGWATQQDGRVVTDVLPIEGQEDSLVSSSSSVELGWHTEDAFSPYRADYVGLFSLRNPDSVATTVAGLDPDLVGPAVVDVLFGERFHIRPDNSHLPTHNSGGRLSDYFAGIVEAVENPRAVSILRGHRDAPQLCVDSDFTTAVDGDAEAAGALDTLIKHLGGALYEVVLGPGDVAFLDNRNVVHGRRPFRARFDGTDRWLKRINVTADLRKSRAARRDAQARVLGEA
notes: CmnC, alpha-ketoglutarate-dependent non-heme iron oxygenase of capreomycin biosynthesis; gene cmnC amplified from genomic DNA of the capreomycin producer (ATCC 23892) and subcloned into pET28a; also called CmnC^apo; wild-type CmnC
  stoichiometry N: 2
